Experimental data from patent publication US20220386594A1 (IBI AG INNOVATIVE BIO INSECTICIDES, published 2022).
Substitutions are numbered along the chain they refer to.

B1: VAT0101B (VHH)
VHH: QVQLQESGGGLVQAGGSLRLSCAASGSTLSGYIMSWFRQPPGKERELVAAITYVGSTYVEDSVKGRFTISRDNAKNTVSLQMNSLKPEDTAVYYCRAREGEQLDFWGQGTQVTVSS
notes: Llama nanobody, His-tagged, expressed in E. coli SHuffle T7; also called anti-VAT nanobody VAT0101B
B2: VAT0101F (VHH)
VHH: B1 VHH with L11T, L29F
notes: Llama nanobody, His-tagged, expressed in E. coli SHuffle T7; also called anti-VAT nanobody VAT0101F
B3: VAT0101E (VHH)
VHH: B1 VHH with G16D, L29F
notes: Llama nanobody, His-tagged, expressed in E. coli SHuffle T7; also called anti-VAT nanobody VAT0101E
B4: VAT0101G (VHH)
VHH: B1 VHH with L29F, Y58W, V59Y, E60Q
notes: Llama nanobody, His-tagged, expressed in E. coli SHuffle T7; also called VATO101G; anti-VAT nanobody VAT0101G
B5: VAT0101C (VHH)
VHH: B1 VHH with A14S, G16D, L29F
notes: Llama nanobody, His-tagged, expressed in E. coli SHuffle T7; also called anti-VAT nanobody VAT0101C
B6: VAT0101D (VHH)
VHH: B1 VHH with A14P, A23V, L29F
notes: Llama nanobody, His-tagged, expressed in E. coli SHuffle T7; also called anti-VAT nanobody VAT0101D
B7: TRH14 (VHH)
VHH: QVQLQESGGGLVQAGDSLRLSCAASGRPFSSYTMGWFRQAPGKEREFVAAISWSGGTTYYTDSVQGRFTISRDNAKNTVYLQMNRLKPEDTAVYYCATDVGRIYGGGSLYSSAFSYDYWGQGTQVTVSS
notes: Llama nanobody, His-tagged, expressed in E. coli SHuffle T7; also called anti-TRH nanobody TRH14
B8: TRH12 (VHH)
VHH: QVQLQESGGGLVQAGGSLRLSCAASTSTVSDYHMGWFRQGPGKEREFVAAISWSGDSTDYADSVKARFTISRDNAKKTMSLQMNSLKPEDTAAYYCAARRVFKATWDYWGQGTQVTVSS
notes: Llama nanobody, His-tagged, expressed in E. coli SHuffle T7; also called anti-TRH nanobody TRH12
B9: TRH1A (VHH)
VHH: QVQLQESGGGLVQAGGSLRLSCATSGRAFTNYHMGWFRQTPGKEREFVALISWSGDSTRYADSVKGRFTISRDNAKRTVALQMDSLKPEDSAVYYCASRLVGQSQYEVWGQGTQVTVSS
notes: Llama nanobody, His-tagged, expressed in E. coli SHuffle T7; also called anti-TRH nanobody TRH1A
B10: TRH13 (VHH)
VHH: QVQLQESGGGLVQAGGSLRLTCAATVRIFSSYTMGWFRQSPGKEREFVGAITWSGGNTYYADSVKGRFTISRDNAKNTVYLQMNSLKSEDTAVYYCAADPGRSYVLSRYYDQASYDYWGQGTQVTVSS
notes: Llama nanobody, His-tagged, expressed in E. coli SHuffle T7; also called anti-TRH nanobody TRH13
B11: CDA01A (VHH)
VHH: QVQLQESGGGLVQAGGSLRLSCAASGRTFNTYAMGWFRQAPGKEREFVAAMNRDGSTVLYADSVKGRFAISKDNAKNTGYLQMNSLKPEDTAIYYCAANARYSDYTDGQSFVSWGQGTQVTVSS
notes: Llama nanobody, His-tagged, expressed in E. coli SHuffle T7; also called CDA1a; anti-CDA nanobody CDA01A
B12: CHS18 (VHH)
VHH: QVQLQESGGGLVQAGGSLRLSCTASGRTFSSYSMAWFRQASGKEREIVAAVSRFGKFKYYADSVKGRFTISRDNAKNTLYLQMNSLKPEDTAVYYCAKTDGSSWYLDYWGQGTQVTVSS
notes: Llama nanobody, His-tagged, expressed in E. coli SHuffle T7; also called anti-CHS nanobody CHS18
B13: CHS24 (VHH)
VHH: QVQLQESGGGWVQPGGSLRLSCTISGLSRYYAMGWFRQVPGKERESVATISLRGGRTYYADSVEGRFTISRDNAKNTMYLQMNSLKPEDTAVYYCVADTTWGAPRSRYHYWGQGTQVTVSS
notes: Llama nanobody, His-tagged, expressed in E. coli SHuffle T7; also called anti-CHS nanobody CHS24
B14: CHS08 (VHH)
VHH: QVQLQESGGGLVQAGSSLRLSCAASGRTFRYHAMGWFRQAPGKEREFVAGISTSGGMTYYPDSVKGRFTISRDNAKNTLYLQMNSLKPGDTAVYYCAKFHGDKGYGSSWYYDYWGQGTQVTVSS
notes: Llama nanobody, His-tagged, expressed in E. coli SHuffle T7; also called CHS8; anti-CHS nanobody CHS08
B15: CHS22 (VHH)
VHH: QVQLQESGGGLVQAGGSLRLSCAASGGTFSGLTMGWFRQAPGKERDFVAAISWNGRFTYYKDSVKGRFAISRDNAKSTVYLQMTSLKPEDTAVYYCGADVLSGRGYRYWGQGTQVTVSS
notes: Llama nanobody, His-tagged, expressed in E. coli SHuffle T7; also called anti-CHS nanobody CHS22
B16: CHS01A (VHH)
VHH: QVQLQESGGGLVQAGGSLRLSCSASTSIASINAVGWYRQAPGKQRELVAVIVNGSTTRYADSVKGRFTISGDNAENTVPLLMSSLKPEDTAIYYCGARDLSGTYWGQGTQVTVSS
notes: Llama nanobody, His-tagged, expressed in E. coli SHuffle T7; also called CHS1a; anti-CHS nanobody CHS01A
B17: CHS02A (VHH)
VHH: QVQLQESGGGLVQAGGSLRLSCAASRGTFSRYVMGWFRQGPGKEREFVAGISWSGISTYYADFVKGRFTISRDNAKNTVYLQMNSLKPEDTAVYYCAADPGRGYDYWGQGTQVTVSS
notes: Llama nanobody, His-tagged, expressed in E. coli SHuffle T7; also called CHS2a; anti-CHS nanobody CHS02A
B18: CHS13 (VHH)
VHH: QVQLQESGGGLVQAGGSLRLSCTVSGGTFTTYTMAWFRQAPGKEREFVAQISWSGGITAYLDSVKGRFTISRDNAKNTVYLQMNSLKPEDTAVYYCARRGRKYEDDYWGQGTQVTVSS
notes: Llama nanobody, His-tagged, expressed in E. coli SHuffle T7; also called anti-CHS nanobody CHS13
B19: NPC0901 (VHH)
VHH: QVQLQESGGGLVQAGDSLRISCKASGRTFSNYPIGWFRQAPGKEREFVAAISRSGGGTRYADSVKGRFTISRDNAKNTVYLQMNSLKRDDTAVYYCAAYFGNLGGGVGRSSDYDYWGQGTQVTVSS
notes: Llama nanobody, His-tagged, expressed in E. coli SHuffle T7; also called NPC9; anti-NPC nanobody NPC0901
B20: NPC04C01 (VHH)
VHH: QVQLQESGGGLVQAGGSLRLSCAASGRTFSSYVMGWFRQAPGKERELIGAINRSSTRLYYADSVKGRFSISRDNAKSTVYLQMNSLKPEDTAVYYCAADLVSILGKGYRDVDYWGQGTQVTVSS
notes: Llama nanobody, His-tagged, expressed in E. coli SHuffle T7; also called NPC4c; NPC4C
B21: NPC04D01 (VHH)
VHH: B20 VHH with A14P, L20V, R27F, T28S, S31N
notes: Llama nanobody, His-tagged, expressed in E. coli SHuffle T7; also called NPC4d; NPC4D
B22: NPC01C01 (VHH)
VHH: QVQLQESGGGLVQVGGSLRISCVASGRTGSYYAMGWFRQAPGKEREFVAAISWNGGMTDYADFVKGRFAISRDNAKTVSLQMNNLKPEDTALYYCTAGPARRSYSYRDGYDYWGQGTQVTVSS
notes: Llama nanobody, His-tagged, expressed in E. coli SHuffle T7; also called NPC1c; anti-NPC nanobody NPC01C01
B23: NPC07A01 (VHH)
VHH: QVQLQESGGGLVQAGDSLRISCKASGRTFSSYPIGWFRQAPGKEREFVAAISRSGGRTYYADSVKGRLTISRDNAKNTVYLQMNSLKLEDTAVYYCAAKTTMGLPVGGTYEYDYWGQGTQVTVSS
notes: Llama nanobody, His-tagged, expressed in E. coli SHuffle T7; also called NPC7a; anti-NPC nanobody NPC07A01

Target: T1, Helicoverpa armigera V-ATPase subunit c (Helicoverpa armigera)
T1 construct: also called V-ATPases Subunit C; ATPase V subunit c
T1 chain: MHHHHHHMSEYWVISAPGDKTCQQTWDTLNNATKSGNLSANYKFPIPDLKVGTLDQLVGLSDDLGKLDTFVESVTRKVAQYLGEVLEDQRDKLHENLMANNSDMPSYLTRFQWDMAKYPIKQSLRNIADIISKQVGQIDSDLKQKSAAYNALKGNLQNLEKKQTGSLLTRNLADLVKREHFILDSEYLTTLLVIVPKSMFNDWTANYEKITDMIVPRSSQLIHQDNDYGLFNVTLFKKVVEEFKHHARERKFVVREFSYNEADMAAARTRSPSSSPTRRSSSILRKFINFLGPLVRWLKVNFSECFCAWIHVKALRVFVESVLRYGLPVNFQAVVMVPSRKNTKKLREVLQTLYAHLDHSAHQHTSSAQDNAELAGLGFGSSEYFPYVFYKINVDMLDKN
Test: ELISA, plate coated with 10 ug/ml target protein, 2 ug/ml nanobody, anti-VHH-HRP, A450
B1: binds.
B2: binds.
B3: binds.
B4: binds.
B5: binds.
B6: binds.

Target: T2, Helicoverpa armigera trehalase (Helicoverpa armigera)
T2 construct: the tag is not part of the printed entry; also called TRH; target TRH antigen
T2 chain: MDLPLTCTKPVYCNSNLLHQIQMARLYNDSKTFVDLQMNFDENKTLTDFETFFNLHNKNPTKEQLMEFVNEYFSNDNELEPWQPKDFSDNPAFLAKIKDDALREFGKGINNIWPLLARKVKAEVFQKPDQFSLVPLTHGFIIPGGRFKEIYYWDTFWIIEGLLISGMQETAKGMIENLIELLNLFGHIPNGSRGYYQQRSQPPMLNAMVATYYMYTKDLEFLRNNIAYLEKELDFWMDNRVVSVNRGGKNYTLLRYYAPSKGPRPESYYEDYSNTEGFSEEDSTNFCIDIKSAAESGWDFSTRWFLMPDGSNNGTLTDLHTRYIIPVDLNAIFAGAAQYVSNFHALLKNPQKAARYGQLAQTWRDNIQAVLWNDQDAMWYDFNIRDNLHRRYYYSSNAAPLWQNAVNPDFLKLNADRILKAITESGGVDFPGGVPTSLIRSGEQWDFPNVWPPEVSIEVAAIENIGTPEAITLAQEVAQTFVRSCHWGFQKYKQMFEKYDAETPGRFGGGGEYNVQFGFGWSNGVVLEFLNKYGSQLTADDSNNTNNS
Test: as above
B7: binds.
B8: binds.
B9: binds.
B10: binds.

Target: T3, Helicoverpa armigera chitin deacetylase (Helicoverpa armigera)
T3 construct: the tag is not part of the printed entry; also called CDA; target CDA antigen
T3 chain: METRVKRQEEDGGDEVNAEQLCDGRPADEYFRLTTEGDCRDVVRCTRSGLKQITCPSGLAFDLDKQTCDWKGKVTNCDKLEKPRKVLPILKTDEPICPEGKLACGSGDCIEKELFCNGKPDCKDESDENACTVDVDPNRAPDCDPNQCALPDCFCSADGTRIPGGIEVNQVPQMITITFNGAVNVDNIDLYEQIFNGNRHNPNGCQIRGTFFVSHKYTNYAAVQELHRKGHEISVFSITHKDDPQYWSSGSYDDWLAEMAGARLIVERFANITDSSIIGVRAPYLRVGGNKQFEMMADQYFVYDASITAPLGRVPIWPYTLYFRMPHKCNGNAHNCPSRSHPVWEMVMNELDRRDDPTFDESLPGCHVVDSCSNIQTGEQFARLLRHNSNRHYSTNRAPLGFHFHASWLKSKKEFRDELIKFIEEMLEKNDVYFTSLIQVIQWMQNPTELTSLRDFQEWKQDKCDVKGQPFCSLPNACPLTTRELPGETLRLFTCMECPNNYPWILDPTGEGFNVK
Test: as above
B11: binds.

Target: T4, Helicoverpa armigera chitin synthase (Helicoverpa armigera)
T4 construct: the tag is not part of the printed entry; also called CHS; target CHS antigen
T4 chain: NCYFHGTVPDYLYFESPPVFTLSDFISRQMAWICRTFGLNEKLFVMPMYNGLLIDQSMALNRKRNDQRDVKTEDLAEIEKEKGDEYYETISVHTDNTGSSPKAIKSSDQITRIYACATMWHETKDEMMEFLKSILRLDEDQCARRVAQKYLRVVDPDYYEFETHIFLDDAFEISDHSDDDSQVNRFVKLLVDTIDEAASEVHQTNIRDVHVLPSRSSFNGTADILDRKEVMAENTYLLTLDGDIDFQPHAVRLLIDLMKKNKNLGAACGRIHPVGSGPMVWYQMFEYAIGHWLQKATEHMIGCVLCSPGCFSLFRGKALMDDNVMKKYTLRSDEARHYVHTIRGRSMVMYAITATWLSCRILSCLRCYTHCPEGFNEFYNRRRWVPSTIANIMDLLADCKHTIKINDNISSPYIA
Test: as above
B12: binds.
B13: binds.
B14: binds.
B15: binds.
B16: binds.
B17: binds.
B18: binds.

Target: T5, Helicoverpa armigera NPC1 sterol transporter (Helicoverpa armigera)
T5 construct: the tag is not part of the printed entry; also called target NPC antigen; target NPC1 antigen
T5 chain: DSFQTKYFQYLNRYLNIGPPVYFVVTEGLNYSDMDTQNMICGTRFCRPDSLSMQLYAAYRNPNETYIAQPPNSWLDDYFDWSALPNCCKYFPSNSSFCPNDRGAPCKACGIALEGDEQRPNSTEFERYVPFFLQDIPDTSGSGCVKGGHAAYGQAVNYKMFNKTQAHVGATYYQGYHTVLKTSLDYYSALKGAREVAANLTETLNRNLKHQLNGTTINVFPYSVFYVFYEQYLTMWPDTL
Test: as above
B19: binds.
B20: binds.
B21: binds.
B22: binds.
B23: binds.
